Patent US20200317755A1 (HUMABS BIOMED, published 2020)

Experiments:
ZIKV E protein = biological target: T1, ZIKV E protein (Zika virus, UniProt Q32ZE1 291-694); assay: ELISA
T1 construct: domain: envelope protein (E protein); also called Zika virus envelope protein; recombinant ZIKV E protein

ZIKV EDIII = biological target: T2, ZIKV EDIII (Zika virus, UniProt A0A024B7W1 599-693); assay: ELISA
T2 construct: also called domain III of ZIKV E protein; DIII ZI

B1: ZKA230-Fab (Fab, V domains shown)
VH: QVQLQESGPGLVKPSETLSLTCAVSGGSISSDYWSWIRQPPGKGLEWIGYIYYSGSTNYNPSLKSRVTISVDTSKNHFSLKLNSVTAADTAVYYCARRRKYDSLWGSFAFDIWGQGTMVTVSS
VL: QSVLTQPPSASGTPGQRVTISCSGSSSNIGGNYVYWYQQLPGTAPKLLICINDHRPSGVPDRFSGSKSGTSASLAISGLQSEDEADYYCATWDDSLGGLVFGGGTKLTVL
notes: also called Fab of ZKA230
binding result (ZIKV E protein): no binding (tested: 10 nM) | binding result (ZIKV EDIII): no binding (tested: 10 nM)
